Test results: patent publication US20210324028A1 (Pfizer, published 2021)
Substitutions are numbered along the chain they refer to. Names may count otherwise. Like-named read-outs stand apart in the source and are kept apart here.

T1: human IL-2Rβ (human, UniProt P14784 27-240, limits assumed)
T1 construct: also called hIL-2Rβ; IL-2 receptor beta
T1 sequence (looked up): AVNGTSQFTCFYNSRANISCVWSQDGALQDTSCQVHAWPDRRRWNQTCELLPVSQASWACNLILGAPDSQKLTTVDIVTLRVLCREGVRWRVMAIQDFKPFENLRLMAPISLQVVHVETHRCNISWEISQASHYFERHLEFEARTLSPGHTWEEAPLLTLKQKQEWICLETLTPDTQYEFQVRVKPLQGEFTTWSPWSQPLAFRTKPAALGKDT

T2: IL-15 signaling receptor on 32D[pRF770+pRF791] cells (human CD122 plus mouse CD132) (human; mouse, UniProt P14784 27-551; P34902 23-369)
T2 sequence (looked up) 1: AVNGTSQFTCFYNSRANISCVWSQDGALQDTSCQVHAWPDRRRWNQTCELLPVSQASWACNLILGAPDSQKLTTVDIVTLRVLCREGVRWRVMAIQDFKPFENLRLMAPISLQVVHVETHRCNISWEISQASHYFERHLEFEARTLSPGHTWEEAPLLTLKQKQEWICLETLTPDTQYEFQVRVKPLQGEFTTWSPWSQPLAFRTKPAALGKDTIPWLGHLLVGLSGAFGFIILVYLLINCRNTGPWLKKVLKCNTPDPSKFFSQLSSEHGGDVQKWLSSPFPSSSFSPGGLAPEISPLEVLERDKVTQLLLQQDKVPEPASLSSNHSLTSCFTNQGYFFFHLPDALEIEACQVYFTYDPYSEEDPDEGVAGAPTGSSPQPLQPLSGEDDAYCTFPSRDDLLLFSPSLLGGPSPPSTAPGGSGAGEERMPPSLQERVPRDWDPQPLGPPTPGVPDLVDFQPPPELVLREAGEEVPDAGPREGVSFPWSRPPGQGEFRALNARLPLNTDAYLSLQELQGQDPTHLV
T2 sequence (looked up) 2: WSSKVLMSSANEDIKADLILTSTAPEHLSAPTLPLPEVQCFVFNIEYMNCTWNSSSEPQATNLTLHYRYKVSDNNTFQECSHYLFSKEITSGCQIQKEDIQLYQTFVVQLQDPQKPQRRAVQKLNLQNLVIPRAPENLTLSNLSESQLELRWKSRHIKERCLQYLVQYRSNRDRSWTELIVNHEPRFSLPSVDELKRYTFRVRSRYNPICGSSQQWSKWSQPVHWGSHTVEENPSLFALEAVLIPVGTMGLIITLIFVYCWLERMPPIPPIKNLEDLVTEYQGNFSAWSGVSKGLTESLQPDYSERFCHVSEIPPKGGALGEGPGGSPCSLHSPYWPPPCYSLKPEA

T3: mouse PD-1 on doxycycline-induced 32D[pRF770+pRF791] cells (mouse, UniProt Q02242 25-288)
T3 sequence (looked up): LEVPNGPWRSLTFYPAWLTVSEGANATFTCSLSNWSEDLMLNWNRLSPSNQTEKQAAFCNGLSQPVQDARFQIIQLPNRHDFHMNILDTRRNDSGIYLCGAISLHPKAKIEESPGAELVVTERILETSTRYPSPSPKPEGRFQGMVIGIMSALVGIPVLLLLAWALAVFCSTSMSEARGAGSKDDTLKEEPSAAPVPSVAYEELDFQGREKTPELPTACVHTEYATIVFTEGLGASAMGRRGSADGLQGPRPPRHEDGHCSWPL

B1: xmPD-1-hIL15 NQ-3d (other)
heavy 1: HHHHHHHHGGGGSGSGGEVQLVESGGGLVKPGGSLELSCAASGFTFSSYWMSWVRQAPEKGLEWVAAISPSGGSTYYADSVKGRFTISRDNAKNTLFLQMTSLRSEDTAMYYCAKESWGAYYDLWGQGTTVTVSSASTKGPSVFPLAPCSRSTSESTAALGCLVKDYFPEPVTVSWNSGALTSGVHTFPAVLQSSGLYSLSSVVTVPSSNFGTQTYTCNVDHKPSNTKVDKTVERKCRVRCPRCPAPPVAGPSVFLFPPKPKDTLMISRTPEVTCVVVAVSHEDPEVQFNWYVDGVEVHNAKTKPREEQFNSTFRVVSVLTVVHQDWLNGKEYKCKVSNKGLPSSIEKTISKTKGQPREPQVYTLPPSREEMTKNQVSLTCLVKGFYPSDIAVEWESNGQPENNYKTTPPMLDSDGSFFLYSRLTVDKSRWQQGNVFSCSVMHEALHNHYTQKSLSLSPGK
heavy 2: EVQLVESGGGLVKPGGSLELSCAASGFTFSSYWMSWVRQAPEKGLEWVAAISPSGGSTYYADSVKGRFTISRDNAKNTLFLQMTSLRSEDTAMYYCAKESWGAYYDLWGQGTTVTVSSASTKGPSVFPLAPCSRSTSESTAALGCLVKDYFPEPVTVSWNSGALTSGVHTFPAVLQSSGLYSLSSVVTVPSSNFGTQTYTCNVDHKPSNTKVDKTVERKCEVECPECPAPPVAGPSVFLFPPKPKDTLMISRTPEVTCVVVAVSHEDPEVQFNWYVDGVEVHNAKTKPREEQFNSTFRVVSVLTVVHQDWLNGKEYKCKVSNKGLPSSIEKTISKTKGQPREPQVYTLPPSREEMTKNQVSLTCEVKGFYPSDIAVEWESNGQPENNYKTTPPMLDSDGSFFLYSKLTVDKSRWQQGNVFSCSVMHEALHNHYTQKSLSLSPGSGGGGGTSATATPGANWVNVISDLKKIEDLIQSMHIDATLYTESDVHPSCKVTAMKCFLLQLQVISLQSGDASIHDTVENLIILANNSLSSNGNVTESGCKECEELEQKNIKEFLQSFVHIVQMFINT
light: DIVMTQSPSSLSVSAGDKVTMSCRASQGISSWLAWYQQKPWQPPKLLIYKASTLESGVPDRFTGSGSGTDFTLTISSVQAEDLAVYYCQQSYSTPWTFGGGTKLEIKGTVAAPSVFIFPPSDEQLKSGTASVVCLLNNFYPREAKVQWKVDNALQSGNSQESVTEQDSKDSTYSLSSTLTLSKADYEKHKVYACEVTHQGLSSPVTKSFNRGEC
notes: also called xmPD-1-IL15 NQ-3d; xmPD-IL15 NQ3d
B2: xmPD-1-IL15 m1 (other)
heavy 1: EVQLVESGGGLVKPGGSLELSCAASGFTFSSYWMSWVRQAPEKGLEWVAAISPSGGSTYYADSVKGRFTISRDNAKNTLFLQMTSLRSEDTAMYYCAKESWGAYYDLWGQGTTVTVSSASTKGPSVFPLAPSSKSTSGGTAALGCLVKDYFPEPVTVSWNSGALTSGVHTFPAVLQSSGLYSLSSVVTVPSSSLGTQTYICNVNHKPSNTKVDKKVEPKSCDKTHTCPPCPAPEAAGAPSVFLFPPKPKDTLMISRTPEVTCVVVDVSHEDPEVKFNWYVDGVEVHNAKTKPREEQYNSTYRVVSVLTVLHQDWLNGKEYKCKVSNKALPAPIEKTISKAKGQPREPQVYTLPPCREEMTKNQVSLSCAVKGFYPSDIAVEWESNGQPENNYKTTPPVLDSDGSFFLVSKLTVDKSRWQQGNVFSCSVMHEALHNHYTQKSLSLSPGSGGGGSGGGGSGGGGAWVNVISDLKKIEDLIQSMHIDATLYTESNVHPSCKVTAMKCFLLGLQRISLESGDASIHDTVENLIILANNSLSSNGNVTESGCKECEELEEKNIKEFLQSFVHIVQMFINTS
heavy 2: EVQLVESGGGLVKPGGSLELSCAASGFTFSSYWMSWVRQAPEKGLEWVAAISPSGGSTYYADSVKGRFTISRDNAKNTLFLQMTSLRSEDTAMYYCAKESWGAYYDLWGQGTTVTVSSASTKGPSVFPLAPSSKSTSGGTAALGCLVKDYFPEPVTVSWNSGALTSGVHTFPAVLQSSGLYSLSSVVTVPSSSLGTQTYICNVNHKPSNTKVDKKVEPKSCDKTHTCPPCPAPEAAGAPSVFLFPPKPKDTLMISRTPEVTCVVVDVSHEDPEVKFNWYVDGVEVHNAKTKPREEQYNSTYRVVSVLTVLHQDWLNGKEYKCKVSNKALPAPIEKTISKAKGQPREPQVCTLPPSREEMTKNQVSLWCLVKGFYPSDIAVEWESNGQPENNYKTTPPVLDSDGSFFLYSKLTVDKSRWQQGNVFSCSVMHEALHNHYTQKSLSLSPGK
light: B1 light
notes: also called xmPD-1-hIL15 V49R/E46G/N1A/D30N
B3: xmPD-1-hIL15 V49R/E46G/E64Q/D30N/N4K/M109A (other)
heavy 1: B1 heavy 1
heavy 2: B1 heavy 2 with N462K, D488N, Q504G, V507R, Q511E, E522Q, Q551E, M567A
light: B1 light
notes: not restated for this mutant; also called xmPD1-hIL15_V49R-E46G-E64Q-N4K-D30N-M109A; xmPD-1-hIL15 VS49R/E46G/E64Q/D30N/N4K/M109A
B4: xmPD-1-IL15 m2 (other)
heavy 1: B2 heavy 1 with A463G, E526Q
heavy 2: B2 heavy 2
light: B1 light
notes: also called xmPD-1-hIL15 V49R/E46G/N1G/E64Q/D30N
B5: xmPD-1-hIL15 V49R/E46G/E64Q/D30N (other)
heavy 1: B1 heavy 1
heavy 2: B1 heavy 2 with D488N, Q504G, V507R, Q511E, E522Q, Q551E
light: B1 light
notes: not restated for this mutant; also called xmPD-IL15 V49R/E46G/E64Q/D30N

Columns and labels:
[1] = biological target: T1, human IL-2Rβ; assay: SPR, steady state, fusion captured
Experimental: (§1) Anti-human Fc sensor chips were prepared at 25° C. with a running buffer of 10 mM HEPES, 150 mM NaCl, 0.05% (v/v) Tween-20, pH 7.4. All surfaces of a Biacore CM4 sensor chip were activated with a 1:1 (v/v) mixture of 400 mM EDC and 100 mM NHS for 7 minutes, at a flow rate of 10 μL/min. An anti-human Fc reagent (Goat anti-human IgG Fc-γ specific, SouthernBiotech, Birmingham, Ala., Catalog #2014-01) was diluted to 50 μg/mL in 10 mM sodium acetate (pH 4.5) and injected on all flow cells for 7 minutes at 20 μL/min. All flow cells were blocked with 100 mM ethylenediamine in 200 mM Borate buffer pH 8.5 for 7 minutes at 10 μL/min.
(§2) All protein interaction experiments were performed at 37° C. using a running buffer of 10 mM HEPES, 150 mM NaCl, 0.05% (v/v) Tween-20, pH 7.4, 1 mg/mL BSA. Anti-PD-1-hIL-15 fusion proteins were captured at 10 μg/mL at a flow rate of 10 μL/min for 2 minutes. Different fusion proteins were captured in flow cells 2, 3 and 4. No protein was captured onto flow cell 1 which was used as a reference surface. […] After each analyte injection, dissociation was monitored for 5 minutes followed by regeneration of all flow cells with three 60-second injections of 75 mM phosphoric acid. […] For kinetic analysis, the double-referenced sensorgrams were fit globally to a simple 1:1 Langmuir with mass transport binding model using Biacore T200 Evaluation Software version 2.0. For steady-state affinity analysis, the double-referenced equilibrium binding responses were fit with a 1:1 Langmuir steady-state model using Biacore T200 Evaluation Software version 2.0.

[2] = biological target: T4, human IL-15Rα (human, UniProt Q13261 31-205, limits assumed); assay: SPR 37C, fusion captured by anti-human Fc
T4 construct: also called hIL-15Rα; IL-15 receptor alpha
In short: (§3)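 Anti-PD-1–hIL-15 fusions captured at 10 μg/mL on an anti-human Fc surface, receptor injected at 37 °C in HEPES-buffered saline with 0.05% Tween-20 and 1 mg/mL BSA, pH 7.4; 5 min dissociation.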

[3] = biological target: T2, IL-15 signaling receptor on …; assay: cell-based or functional assay
[4] = biological target: T3, mouse PD-1 on doxycycline-induced …; assay: cell-based or functional assay
[5] = biological target: T2, IL-15 signaling receptor on …; assay: cell-based or functional assay; remark: listed apart in the source
[6] = biological target: T3, mouse PD-1 on doxycycline-induced …; assay: cell-based or functional assay; remark: listed apart in the source
[7] = biological target: T1, human IL-2Rβ; assay: SPR 37C, fusion captured by anti-human Fc
In short: as §3

[8] = biological target: T1, human IL-2Rβ; assay: SPR, fusion captured
Experimental: as §1, §2

T4 sequence (Q13261 31-205 limits assumed): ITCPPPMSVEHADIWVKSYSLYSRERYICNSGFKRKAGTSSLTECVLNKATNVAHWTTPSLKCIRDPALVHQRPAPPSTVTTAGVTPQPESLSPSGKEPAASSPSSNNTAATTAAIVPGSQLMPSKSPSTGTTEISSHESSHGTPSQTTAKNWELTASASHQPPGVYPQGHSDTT

Binder | Kd [1] | binding result [2] | pSTAT5 EC50 on PD-1(low) 32D reporter cells [3] | Fold change = EC50 (PD-1(low))/EC50 (PD-1+) [4] | pSTAT5 EC50 on PD-1+ 32D reporter cells [4] | pSTAT5 EC50 on PD-1(low) 32D reporter cells [5] | Fold change = EC50 (PD-1(low))/EC50 (PD-1+) [6] | pSTAT5 EC50 on PD-1+ 32D reporter cells [6] | binding result [7] | Kd [8]
B1 | 446 nM | no binding (tested: 3000 nM) | 3.73 nM | 163 fold | 22.9 pM | – | – | – | – | –
B2 | 433 nM | no binding (tested: 3000 nM) | – | – | – | 76.9 nM | 1450 fold | 53.1 pM | – | –
B3 | – | no binding (tested: 3000 nM) | – | – | – | – | – | – | no binding (tested: 3000 nM) | –
B4 | – | no binding (tested: 3000 nM) | – | – | – | 734 nM | 2370 fold | 0.31 nM | – | > 1500 nM
B5 | – | no binding (tested: 3000 nM) | 98 nM | 715 fold | 0.137 nM | – | – | – | – | > 3000 nM
